± gives the standard error. Fewer inactive variants are shown than the library holds.
B1: glmS ribozyme (parent)
chain: AUAAAAGCGCCAGAACUACAGAAAUGUAGUUGACGAGGAGGAGGUUUAUCGAAUUUUCGGCGGAUGCCUCCAAA

Legend:
Conditions in all cases: with glucosamine-6-phosphate
glucosamine-6-phosphate [1] = variants of: B1; assay: self-cleavage kobs at 40 uM GlcN6P; higher = faster cleavage; RNA array
Summary of the method: (§1)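 Tracking of barcoded ribozyme variants used a hybridised Cy3 probe at 37 °C, after in situ transcription by E. coli RNA polymerase on sequenced MiSeq chips. The flowed solution held 40 μM to 10 mM glucosamine-6-phosphate in HEPES/KCl/Mg(OAc)2 buffer, and imaging ran over ~14 h. kobs was taken from exponential decay fits of normalised per-tile medians, and kcat and KM from weighted Michaelis–Menten fits.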

glucosamine-6-phosphate [2] = variants of: B1; assay: self-cleavage kobs at 10000 uM GlcN6P; higher = faster cleavage; RNA array
Summary of the method: as §1

glucosamine-6-phosphate [3] = variants of: B1; assay: self-cleavage kobs at 160 uM GlcN6P; higher = faster cleavage; RNA array
Summary of the method: as §1

glucosamine-6-phosphate [4] = variants of: B1; assay: self-cleavage kobs at 640 uM GlcN6P; higher = faster cleavage; RNA array
Summary of the method: as §1

glucosamine-6-phosphate [5] = variants of: B1; assay: self-cleavage kobs at 2500 uM GlcN6P; higher = faster cleavage; RNA array
Summary of the method: as §1

Variant	self-cleavage kobs at 40 uM GlcN6P (glucosamine-6-phosphate [1]) [s⁻¹]	self-cleavage kobs at 10000 uM GlcN6P (glucosamine-6-phosphate [2]) [s⁻¹]	self-cleavage kobs at 160 uM GlcN6P (glucosamine-6-phosphate [3]) [s⁻¹]	self-cleavage kobs at 640 uM GlcN6P (glucosamine-6-phosphate [4]) [s⁻¹]	self-cleavage kobs at 2500 uM GlcN6P (glucosamine-6-phosphate [5]) [s⁻¹]
AUAAAAGCGACAGAAAUACAGAAAUGUAGUUGACGAGGAGUAGGUUUAUCGAAUUUUCGGCGGAUGCCUCCAAA [C10A C16A G41U]	< 1e-05	< 1e-05			
AUAAAAGCUCCAGAACUACAGAAAUGUAGUUGACGAGGAGGAGGUUUAUCGAAUUUUCGGCGGAUACCUCCAAA [G9U G66A]	< 1e-05	< 1e-05	< 1e-05	< 1e-05	
AUAAAAGCUCCAGAACUACAGAAAUGUAGUUGACGAGGAGGAGCUUUAUCGAAUUUUCGGCGGCUGCCUCCAAA [G9U G44C A64C]	< 1e-05	< 1e-05			
AUAAAAGCGACAGAACUACAGAAAUGUAGUUGAAGAGUAGGAGGUUUAUCGAAUUUUCGGCGGAUGCCUCCAAA [C10A C34A G38U]	< 1e-05				
AUAAAAGCUCCAGAACUACAGAAAUGUAGCUGACGAGGAGGAAGUUUAUCGAAUUUUCGGCGGAUGCCUCCAAA [G9U U30C G43A]	< 1e-05			< 1e-05	
AUAAAAGCGACAGAAAUACAGAAAUGUAGUUGACGAGGAGGAGGUUUAUCUAAUUUUCGGCGGAUGCGUCAAAA [C10A C16A G51U C68G C71A]	7.7e-05 ± 2e-05	8.53e-05 ± 1.6e-05		0.00052 ± 0.00016	
AUAAAAGCGACAGAACUACAGAAAUGUAGUUGACGAGGAGGAGGUUUGUCGAAUUUUCGGCGGAUGCCUCCAAA [C10A A48G]	< 1e-05	< 1e-05	< 1e-05	< 1e-05	
AUAAAAGCGACAGAACUACAGAAAUGUAGUUGACGAGGAGGAGGUUUAUCGUAUUGUCGGCGGAUGCCUCCAAA [C10A A52U U56G]	< 1e-05	< 1e-05	< 1e-05	< 1e-05	< 1e-05
AUAAAAGCUCCAGAACUACAGAAAUGUAGUAGAUGAGGAGGAGGUUUAUCGAAUUUUCGGCGGAUGCCUCCAAA [G9U U31A C34U]	< 1e-05		< 1e-05		
AUAAAAGCGACAGCACUACAGAAAUGUAGUUGACGAGGAGGAGGUUUAUCGAAUUUUCGGCGGAUGCCUCCAAA [C10A A14C]	< 1e-05			< 1e-05	< 1e-05
AUAAAAGCGACAGUACUACAGAAAUGUAGUUGACGAGGAGGAGGUUUAUCGAAUUUUCGGCGGAUGCCUCCAAA [C10A A14U]	< 1e-05			< 1e-05	
AUAAAAGCGAGAGAACUACAGAAAUGUAGUUGACGAGGAGGAGGUUUAUCGAAUUUUCGUGGGAUGCCUCCAAA [C10A C11G G60U C61G]	< 1e-05	< 1e-05			
AUAAAAGCGACAGAACUACAGAAAUGUAGUUGACGAGGUGGAGGUUUAUCGAAUUUUCGGCGGAUGCCCCCAAA [C10A A39U U69C]	< 1e-05	< 1e-05			
AUAAAAGCGACAGAACUACAGAAAUGUAGUUGACGAGGUGGAGGUUUAUCGAAUUUUCGGCGGAUGCCUCCAAA [C10A A39U]	< 1e-05	< 1e-05	< 1e-05	< 1e-05	
AUAAAAGCGAUAGAACUACAGAAAUGUAGUUGACGUGGAGGAGGUUUAUCGAAUUUUCGGCGGAUGCCUUGAAA [C10A C11U A36U C70U C71G]	0.000371 ± 9.5e-05	0.000335 ± 6.3e-05		0.000527 ± 0.00015	
AUAAAAGCGACAGGACUACAGAAAUGUAGUUGACGAGGAGGAGCUUUAUCGAAUUUUCGGCGGAUGCCUCCAAA [C10A A14G G44C]	< 1e-05	< 1e-05			< 1e-05
AUAAAAGCGACAGAACUACAGAAAUGUAGUUGACGAGGAGGAGGUUUAUCGAGUUUUCGCCGGAUGCCUCCAAA [C10A A53G G60C]	< 1e-05				
AUAAAAGCGACAGAAUUACAGAAAUGUAGUUGACGAGGAGGAGGUUUAUCGAAUUUUCGGCGGAUGCCUCCAAA [C10A C16U]	< 1e-05		< 1e-05	< 1e-05	
AUAAAAGCUCCAGAACUACAGAAAUGUAGUUGACGAGGAGGAGGUUUAUCGAAUUUUCGUCGGAUGCCUCCAAA [G9U G60U]	< 1e-05			< 1e-05	< 1e-05
AUAAAAGCUCCAGAACUACAGAAAUGUAGUUGACGAGGAGGAGGGUUAUCGAAUUUUCGGCGGAUGCCUCCAAA [G9U U45G]	< 1e-05	< 1e-05	< 1e-05	< 1e-05	< 1e-05
AUAAAAGCUCCAGAACUACAGAAAUGUAGUUGACGAGGAGGAGUUUUAUCGAAUUUUCGGCGGAUGCCUCCAAA [G9U G44U]	< 1e-05	< 1e-05		< 1e-05	< 1e-05
AUAAAAGCUCCAGAACUACAGAAAUGUAGUUGACGAGGAGGAGGUUUAUCGAAUUUUCGGCCGAUGCCUCCAAA [G9U G62C]	< 1e-05	< 1e-05	< 1e-05		
AUAAAAGCGAAAGAACUACAGAAAUGUAGUUGACGAGGAGGAGGUUUAUCGAAUUUUCGGCGGAUGCCUCCAAA [C10A C11A]	< 1e-05	< 1e-05		< 1e-05	
AUAAAAGCGAUAGAACUACAGAAAUGUAGUUGACGAGGAGGAGGUUUAUCGAAUUUUCGGCGGAUGCCUCCAAA [C10A C11U]	< 1e-05	< 1e-05	< 1e-05		< 1e-05
AUAAAAGCGACAGAACUACAGAAAUGUAGUUGACGAGGAGGAGGUUUAUGGAAUUUUCGGCGGAUGCCUCCAAA [C10A C50G]	7.92e-05 ± 1.7e-05	6.81e-05 ± 1.2e-05	0.000235 ± 5.6e-05	0.000189 ± 4.1e-05	0.000174 ± 3.5e-05
AUAAAAGCUCCAGAACUACAGAAAUGUAGGUGACGAGGAGGAGGUUUAUCGAAUUUUCGGCGGAUGCCUCCAAA [G9U U30G]	< 1e-05	< 1e-05		< 1e-05	

— the supplement of paper PMC7125110
